Test results taken from a protein production outcome set (Wang et al. 2014).

assay: label from the status in PepcDB records

| Sequence | protein production |
| --- | --- |
| MSALRVTSPSVEYVQRPLGLDAAHPRLSWPMASAAPGRRQSAYQVRVASSAAGLSHPDVWDSGKVVSDDSVLVPYAGPPLKPRTRYFWSVRVWDADGGASEWSAPSWWETGLMGASQWSAKWISAPAPLTEAPSLEGSSWIWFPEGEPANSAPAATRWFRRTVDLPDDITGATLAISADNVYAVSVDGAEVARTDLEADNEGWRRPAVIDVLDHVHSGNNTLAVSASNASVGPAGWICVLVLTTASGEKKIFSDASWKSTDHEPADGWREPDFDDSGWPAAKVAAAWGAGPWGRVAPVASAANQLRHEFRLPHKKVSRARLYATALGLYEAHLNGRRVGRDQLAPGWTDYRKRVQYQTYDVTSSVRPGANALAAYVAPGWYAGNVGMFGPHQYGERPALLAQLEVEYADGTSERITSGPDWRAASGPIVSADLLSGETYDARKETAGWTSPGFDDRAWLAVRGADNDVPEQIVAQVDGPVRIAKELPARKVTEPKPGVFVLDLGQNMVGSVRLRVSGDAGTTVRLRHAEVLNPDGTIYTANLRSAAATDTYTLKGQGEETYEPRFTFHGFRYVEVTGFPGKPSTTSVTGRVMHTSAPFTFEFETNVPMLNKLHSNITWGQRGNFLSVPTDTPARDERLGWTGDINVFAPTAAYTMESARFLTKWLVDLRDAQTSDGAFTDVAPAVGNLGNGVAGWGDAGVTVPWALYQAYGDRQVLADALPSVHAWLRYLEKHSDGLLRPADGYGDWLNVSDETPKDVIATAYFAHSADLAARMATELGKDAAPYTDLFTRIRKAFQTAYVASDGKVKGDTQSAYVLTLSMNLVPDALRKAAADRLVALIEAKDWHLSTGFLGTPRLLPVLTDTGHTDVAYRLLHQRTFPSWGYPIDKGSTTMWERWDSIQPDGGFQTPEMNSFNHYAYGSVGEWMYANIAGIAPGRAGYRQVVIRPRPGGEVTSARATFASLHGPVSTRWQQRSGGFVLTCSVPPNTTAEVWIPADHPDRVQHTHGTFVRAEDGCAVFEVGSGSHRFTV | failed |
| MSALSRWLLIPPVSARLSERYQGYRRHGASPFSAALGCLWTILAWIVFPLEHPRWQRIRDGHKALYPHINAARPRPLDPARYLIQTLWLVMISSTKERHEPRWRSFARLKDVRGRYHQWMDTLPERVRQKTTHLEKEKELGHLSNGARRFILGVIVTFSLILALICITQPFNPLSQFIFLLLLWGVALLVRRMPGRFSALMLIVLSLTVSCRYIWWRYTSTLNWDDPVSLVCGLILLFAETYAWIVLVLGYFQVVWPLNRQPVPLPKEMSQWPTVDIFVPTYNEDLNVVKNTIYASLGIDWPKDKLNIWILDDGGRESFRQFARHVGVHYIARATHEHAKAGNINNALKHAKGEFVAIFDCDHVPTRSFLQMTMGWFLKEKQLAMMQTPHHFFSPDPFERNLGRFRKTPNEGTLFYGLVQDGNDMWDATFFCGSCAVIRRKPLDEIGGIAVETVTEDAHTSLRLHRRGYTSAYMRIPQSAGLATESLSAHIGQRIRWARGMVQIFRLDNPLFGKGLKLAQRLCYLNAMFHFLSGIPRLIFLTAPLAFLLLHAYIIYAPALMIALFVIPHMVHASLTNSKIQGKYRHSFWSEIYETVLAWYIAPPTLVALINPHKGKFNVTAKGGLVEEKYVDWVISRPYIFLVLLNLLGVAAGVWRYYYGPENETLTVIVSLVWVFYNLVILGGAVAVSVESKQVRRAHRVEIAMPGAIAREDGHLFSCTVHDFSDGGLGIKINGQAQVLEGQKVNLLLKRGQQEYVFPTQVVRVTGNEVGLQLMPLTTKQHIDFVQCTFARADTWALWQDSFPEDKPLESLLDILKLGFRGYRHLAEFAPPSVKVIFRSLTALIAWIVSFIPRRPERQAAIQPSDRVMAQAQQ | failed |
| MSANVQEAANAAIEPASFVKVPMPEPPSSLQQLINDWQLIKHREGGYFKETDRSPYTMEVEKPVNGGSGNTEMVTRNQSTLIYYLLTPDSPIGKFHKNINRIIHILQRGKGQYVLVYPDGQVKSFKVGFDYKNGEVSQWVVPGGVFKASFLLPNEEFDNGFLISEVVVPGFDFEDHTFLKGEDELKHLVGPEKAAELAFLA | not failed |
| MSAQSSVQPELAVRQWRTPLELGFLGVVWGCSFLFMRVAAPKFGTVVLVEIRLALGALVLLPFLWLARERFPLHRWPMLAAIGVLNSALPFLLFAWGAQHAPAAVGAICNAMTVLFTALIAFLFFGERIGTRRALALLVGFIGVLVLATGKSAGLSVGPAALAGATASLLYGIGYNLVKRHMGDLPPAASAASTLGCSALLLAPLAWWQWPTTPVPAVAWACATALGVVCTGLAFLMYYRLIQRIGPARASTVTYLVPVFGALLAWSLLGEPLTWTMLVAAVLILGSVAFSQRAR | failed |
| MSAQVPRELLQLREQVRRQPGDFVAWLMLADAELGMGVTAAGETAVQRALALHPGHPEAVARLGRVRWAQQRHAEAATLLQQASDLVPQHPGIALWLGHALEDAGQPEQAAAAYTRAHKLLPDEPYITAQLLNWRRRLCDWRELDSLAAQVRTAVTQGEAAVEPFAFLSEDASAAEQLACARTRAQAIASSVHPLPAATLRSRGTLQLGFVSNGFSAHPTGLLTVALFEALRRRQPDLQVQLFATSPDDGSDIRARLAQATRMHDVTALGHLATAQHIRNQGIDLLFDLRGWGGGGRPEVFALRPAPVQLNWLAYPGTSGAPWMDYVLGDAIALPTWLEPFYSEQVLRLPRAFQPSDTSRTVAEAPSRAQCGLPDHAVVLCCFNNSYKLNPRSMARMLAVLRAVPGSVLWLLSGPGEADARLRAAAQAQGVHAQRLVFMPKLPHPQYLARYRHADLFLDTHPYNAHTTASDALWAGCPVLTTPGQTFAARVAGSLNHRLGLDEMNVADDATFVAKAIELASDAEALRGVRAQLAEQRLRSGLFDMDGFADDLAALLRGIAQRRGWLGV | failed |
| MSASTSSHRPIKGILKNKSSSGSSVATSGQQSGGTIQDVKRKKSQKWDESSILAAHRATYRDYDLMKANEPGTSYMSVQDNGEDSVRDVEGEDSVRGVEGKEATDASDHSCEVDEQESSEAYMRKILLHKQEKKRQFEMRRRLHYNEELNIKLARQLMWKELQSEDNENEETPQGTNEEKTAAEESEEAPLTGGLQTQSCDP | failed |
| MSAVATFSVALANEVATVRLMAEVALLIGPGDVVTLSGDLGAGKTAAARAMIRYLADDDALEVPSPTFTLVQTYDLPPYPLLHADLYRVEDPSELEEIGLSPLPDGTVALIEWPERAGAALPEDRIDIALSHRPALGPSARAAEITGHGKAVKQVERLAALRSFIETAGYADAERRHMPGDASTRSYARLQRGAESVILMNAPRRPDGPALYAGKSYSAAVHLAEDVRPFVAIGQGLRERGFSAPAIHHADLDAGFLITEDLGRIGFVEGDPPAPVVARYQAATDMLAALHAKPLPDHLPLSTRESYAVPTFDEAAMMIEVGLMPEWYLPDRGAPPSEALRVEFVALWRKLLAGIATAPRTWVLRDYHSPNLIWLEDRPGIERVGVIDFQDTVLGPAAYDVVSLLQDARIDVPEAAELSLLGRYVKARLAADPEFDAPGFARLYAVMSAQRNTRLLGTFARLNRRDGKPQYLKHQPRVWAYLARSLAHPALAEVRAWYRDHVPPPL | failed |
| MSAWFELKQYGSGACRFLLKTKEAQTMLQSDRYPCRDSAEAALGLFRAHCASPERYVKKISSGGKPFFKLKSGKEVILVSHLYDSEATLESAISAIASAGTTERVEHIQL | failed |
| MSAYEAVRIRLDPTPRQTRLLESHAGGARFAYNLMLAHVRRQISLGEKPDWTLYAMRRWWNEWKDEIAPWWRENSKEAYGSAFEWLSQALRNWSDSRKGRRAGRRVGWPKYKSKRSSVPRFAYTTGSFGLIEDDPKALKLPRIGRVHCMENATERVHGRRIVRMTVSRHAGFWYAALTVERPTESVPAKNRKQKNRNRQVGVDLGVRTLATLSDGTTFPNPRNYVRTQRKLRHAQQSLSRRDRGMSHGCGSKRYNRALERVRRIHARIAAQRADNIGKLTTWLADNYSDISIEDLNVQGMSHNRRLAKHVLDADFREFRRQLEYKTARAGTRLHVIDRWYPSSKTCSNCGTVKAKLSLSERVYHCGKCGLVIDRDVNAAINIQVAGSAPETLNARGGSVRQTRLECGTMRHPAKREPSGGDSRVRLGAGLGNEAMQMTSL | failed |
| MSAYIAPSQIAQRQLEYFNGKHVLVAGEVEDMFPLELTAHCESVEVFTSNYSYFRQIRHSDKIKSHFGSEFDVETQADMLLLYWPKAKAEAEYLLAMLMAKLGVNTEIVVVGENRSGVKSIEKMFKEYGPVNKYDSARRCSFYWGNCLNEPKPFNQEEWFKSYTVTLGEQSLTVKSLPGVFSHGEFDLGSRLLLETLPNLSGKVLDFGCGAGVLGAFMAKANPEIAIEMCDINAYAITSSQATLEANGLSGRVFASDIYSDTANDYRFIISNPPFHSGLDTNYNAAETLLGHAPQHLSNHGEMIIVANSFLKYPPIIENAFNNCETLNKTNKFSIYYAKKS | failed |
| MSAYIIETLIKILILVAVFSALGGFATYIERKVLAYFQRRLGPCYVGPFGLLQVAADGIKLFTKEDIIPQGANKFIFTLAPIIAMVSAFVSMAPIPFFPNFTLFGYEIKPLISDINIGFLFFLAVGSAGIYAPILAGLASNNKYSLIGSARATIQLLSFEVVSTLTILAPLMVVGSLSLVEINHYQSGGFLDWLVFKQPLAFVLFLIASYAELNRTPFDLLEHEAEIVAGYCTEYSGLKWGMFFLAEYAHLFAFSFVISIVFFGGFNAWGFIPGGIAILIKAGFFVFLSMWVRATYPHVRPDQLMDMCWKIMLPLALLNIVLTGIIILI | failed |
| MSCGKPQETYSTSSILTREQFEIQHQEEDTIGEQVIFIDGVAYNSRGFRVCGAPNQRGGFCARFGQCPFHKDKVTTFKMSEETVSEFPRQLLTESCNLLQNNERKFKNAWKLDEHHRFLVALKKFGHGNWRQIADYVETRSASQCQSHAQKYYLRKRKLASNANLKRSIFDLIDEDTLSVEIGEEDTWNIIQKCPSKEAQGSVRSRSKTLQRMSTDSSVESYPIRELSTVDSELSTLQTYKQASFFIRIFRNGVFSHGVDLELPNSLASFFIKAAQLLDMSVATKAYTRSGFEISSLHEVCPGDILWISSGEEFIFPSPVQYIET | not failed |
| MSDAAISGRREQGWLAGLGNWIPARFRRDIPVVPVVRLSGTIGAVTPLRPGLTLAGVAKLLDRAFSTRNAKAVALAINSPGGSPVQSRLIYLRIRALAAEKKLPVYAFVEDVAASGGYMIACAADEIYCDPSSILGSIGVVGGGFGFQELIRKIGVERRLYTAGERKAQLDPFLPEDPQEVARLKVLQQEIHALFIALVKESRGTRLKGEESKLFTGEYWAGATSVSLGLADSIGDLRAVLRGKFGDKVRTPLISPPTGLLANLSRKSSGAGASLDGVAALPESMITALETRAIWAKYGF | failed |
| MSDEWKSETPKANDDKSWKLLEKAVLAGVQEQRRARRWGIFFKSLTFIYLFVVLLAFSPFGSLEKSASRSGSHTALIEVKGMIADDEPASADNIVTALRAAFKDEGTKGIVLRINSPGGSPVQSGYIYDEIRRLRGEHPNVKVYAVISDLGASGAYYIASAADQIYADKASLVGSIGVTAASFGFVGTMEKLGVERRVYTSGEHKSFLDPFQPQKPEETQFWQQVLDTTHKQFIDSVKKGRGDRLKVEGHPELFSGLVWSGEQALQLGLIDGLGNASYVAREVVKEKKIEDYTVQESPFDRFAKKFGASVAERLALWMGWQGPVLRLEHHHHHH | failed |
| MSDIELLETLAGTDQPRVMATIIHVEGSSYRKEGAMMLFQEDGTQVGLLSGGCLETDLTIKAQKVWQEQLPRTVVYDLSSEDDLSWGQGSGCNGTISVLLEPVDLKLRQHLKRVYDYLCAGKSVFHVKKLSTSGAVLEYAFILDESVYFGEWHSGHPVEWIRKIDENEEPLMFTHIYSPKERLIIFGAGPDVPPLVTFASNVGFYTVVTDWRPNQCEKHFFPDADEIIVDFPADFLRKFLIRPDDFVLIMTHHFQKDQEILHFLLEKELRYIGILGSKERTRRLLQNRKPPDHLYSPVGLSIDAQGPEEIAISIVAQLIQLIRSRKQASSPFSYLFQPESCKH | not failed |
| MSDIPSDLHYTAEHEWIRRSGDDTVRVGITDYAQSALGDVVFVQLPVIGTAVTAGETFGEVESTKSVSDLYAPISGKVSEVNSDLDGTPQLVNSDPYGAGWLLDIQVDSSDVAALESALTTLLDAEAYRGTLTE | not failed |
